Source: patent US9144594B2, “Cathepsin L mediated diseases and associated methods and products” (University of Miami, priority 2005, dated 2015)
Substitutions are numbered along the chain they refer to. Numbers in names are those of the source. Entries after “also recorded” stand apart in the source; their conditions may differ.

B1: dynK44A: dominant-negative dynamin mutant that cannot bind GTP (protein, UniProt Q05193 1-864, looked up, variant K44A)
Dynamin-1: MGNRGMEDLIPLVNRLQDAFSAIGQNADLDLPQIAVVGGQSAGASSVLENFVGRDFLPRGSGIVTRRPLVLQLVNATTEYAEFLHCKGKKFTDFEEVRLEIEAETDRVTGTNKGISPVPINLRVYSPHVLNLTLVDLPGMTKVPVGDQPPDIEFQIRDMLMQFVTKENCLILAVSPANSDLANSDALKVAKEVDPQGQRTIGVITKLDLMDEGTDARDVLENKLLPLRRGYIGVVNRSQKDIDGKKDITAALAAERKFFLSHPSYRHLADRMGTPYLQKVLNQQLTNHIRDTLPGLRNKLQSQLLSIEKEVEEYKNFRPDDPARKTKALLQMVQQFAVDFEKRIEGSGDQIDTYELSGGARINRIFHERFPFELVKMEFDEKELRREISYAIKNIHGIRTGLFTPDMAFETIVKKQVKKIREPCLKCVDMVISELISTVRQCTKKLQQYPRLREEMERIVTTHIREREGRTKEQVMLLIDIELAYMNTNHEDFIGFANAQQRSNQMNKKKTSGNQDEILVIRKGWLTINNIGIMKGGSKEYWFVLTAENLSWYKDDEEKEKKYMLSVDNLKLRDVEKGFMSSKHIFALFNTEQRNVYKDYRQLELACETQEEVDSWKASFLRAGVYPERVGDKEKASETEENGSDSFMHSMDPQLERQVETIRNLVDSYMAIVNKTVRDLMPKTIMHLMINNTKEFIFSELLANLYSCGDQNTLMEESAEQAQRRDEMLRMYHALKEALSIIGDINTTTVSTPMPPPVDDSWLQVQSVPAGRRSPTSSPTPQRRAPAVPPARPGSRGPAPGPPPAGSALGGAPPVPSRPGASPDPFGPPPQVPSRPNRAPPGVPSRSGQASPSRPESPRPPFDL
B2: dynK694A: dominant activator dynamin mutant impaired in self-assembly (protein)
chain: B1 Dynamin-1 with A44K, K694A
B3: dynL356Q, G358V: dynamin mutant (SEQ ID NO.3) not recognized by cathepsin L; ELSGGA mutated to EQSVGA (protein, listed as Homo sapiens)
chain: B1 Dynamin-1 with A44K, L356Q, G358V
B4: dynR725A: dynamin mutant (SEQ ID NO.4) with impaired GTP hydrolysis capacity (protein, listed as Homo sapiens)
chain: B1 Dynamin-1 with A44K, R725A

Columns and labels:
[1] = system: dynamin-dynamin interactions; assay: FLIM analysis of dynamin-dynamin interactions (self-assembly) in podocytes; format: cell-based, mouse; settings: in ps
Experimental: In one embodiment the cell-based assay to monitor dynamin-dynamin interactions is performed on a cultured mouse podocyte cell line and the readout of dynamin self-assembly using fluorescence lifetime imaging microscopy (FLIM). FLIM is based on the fluorescence resonance energy transfer (FRET) between the donor and acceptor that shortens the lifetime of the donor if the acceptor distance is within ≈100 Å (10 nm). […] The assay is based on overexpressing dynamin in podocytes, and subsequently staining fixed cells with monoclonal anti-dynamin antibodies that have been conjugated with donor or acceptor florophores. In one embodiment of the invention, Alexa-488 is used as the donor florophore and Alexa-568 is used as the acceptor florophore. In yet another embodiment the donor florophore is dynamin conjugated enhanced-cyan fluorescence protein (ECFP) and the acceptor is dynamin conjugated enhanced yellow-fluorescence protein (EYFP). It will be appreciated by the person of ordinary skill in the art that numerous combinations of FRET donor and acceptors can be used, which are readily available and known. In one embodiment, the FLIM assay is carried out in COS cells and the donor can be selected from the list consisting of: ECFP-WT, ECFP-1690K, ECFP-K44A, ECFP-K694A, and the -acceptor can be selected from the list consisting of: EYFP, EYFP-WT, EYFP-K44A, EYFP-1690K, EYFP-K694A. In yet another embodiment the FLIM assay is performed in podocytes and the donor is GTPase-Alexa488 and the acceptor is selected from the list consisting of: DAM-Alexa568, GTPase-Alexa568, and Hudyl-Alexa568. Cells are stained by mixing both donor and acceptor florophores in equal amounts, and examining the spatially-restricted lifetime shortening in cells detects the localization of dynamin-dynamin interactions in cells. Since dynamin-dynamin interactions are vital for the function of the podocyte, it will be appreciated by the person of ordinary skill in the art that this assay can now be used to screen peptides, small molecules or drugs which can affect these molecular interactions. For example such molecules are cytocholasin D, jasplakinolide, colchisine, dynK44A, dynK694A, dynWT, dynI690K, dynR725A (SEQ ID NO.4), dynL356Q, G358V, (SEQ ID NO.3) any combination thereof, etc.
In order to test the hypothesis that self-assembly of dynamin was protecting its cathepsin L processing in cultured podocytes, dynamin self-assembly in live cells was examined using fluorescence lifetime imaging microscopy (FLIM). FLIM is based on the fluorescence resonance energy transfer (FRET) between the donor and the acceptor that shortens the lifetime of the donor if the acceptor distance is within ≈100 Å (10 nm). […] A FLIM-assay was developed that specifically detects dynamin self-assembly into the higher order structures in podocytes. The assay is based on overexpressing dynamin in podocytes, and subsequently staining fixed cells with monoclonal anti-dynamin antibodies that have been conjugated with either Alexa-488 (donor florophore) or Alexa-568 (acceptor florophore). Cells are stained by mixing both florophores in equal amounts, and examining lifetime of Alexa-488. […] Importantly, FRET only occurred in the vicinity of the membrane. […] Thus, both dominant activating mutants, dynK694A and dynR725A, are impaired for assembly into a supramolecular structures in podocytes under normal conditions. […] Loss of FRET measured FLIM correlates with the loss of p40 proteolytic fragment in cultured podocytes. And presence of p40 in cells expressing dynR725A under normal conditions correlates with the lack of dynR725A assembly detected by FLIM. The opposite is true for the dynWT; lack of p40 under control conditions when FLIM is present, and appearance of the p40 upon LPS treatment with no measurable FRET. […] Finally, proteolytic processing of dynamin after LPS treatment is also observed in vivo. […]

podocytes = assay: Actin stress fiber staining in cultured podocytes; format: cell-based, mouse; settings: for actin stress fibers, in words: overexpression in cultured podocytes
Description: This study examined the role of dynamin in actin dynamics of podocytes. An adenoviral expression system was utilized to obtain expression of various dynamin mutants with more than 90% infection efficiency in cultured differentiated mouse podocytes and analyzed the organization of the actin cytoskeleton, their migratory and endocytotic behavior (FIG. 1). […] This type of actin rearrangement in cultured podocytes is resembling actin rearrangement in damaged podocytes during proteinuria in situ (Smoyer and Mundel, 1998). […] Thus, the consequence on actin dynamics in podocytes was examined when dynamin is hyperactive by expressing known dominant activators, dynK694A and dynR725A (SEQ ID NO.4). Both mutants are predicted to live longer in the GTP-bound form. […] To further examine this surprising phenotype in a biological context, motility assays were performed next using a modified Boyden Chamber assay.
Since podocyte FP effacement is primarily driven by the rearrangement of the actin cytoskeleton (Asanuma et al., 2006), actin morphology was examined in cultured podocytes expressing different dynamin mutants. Podocytes were infected with various dynamin constructs using an adenoviral expression system that enables greater than 90% efficiency of infection. The experiments were performed using dyn1 (FIG. 22) as well as dyn2, with identical results. […] Thus, treatments which abolish actin stress fibers in cultured podocytes cause proteinuria in mice. […] Consistent with this notion, the deleterious effects of LPS (which reduces stress fibers) on kidney function were ameliorated by expression of dynR725A (which induces stress fibers).
Podocytes were grown under non-permissive conditions to 70% confluence. Cells were washed twice with 1×PBS and infected with 1.2 ml of serum-free DMEM media containing 100 μl transactivator virus, 100 μl virus expressing dyn1 or dyn2. After 2 h of infection at 37° C., media containing virus was replaced with full DMEM. If cells were treated with LPS or PAN, 50 μg/ml of LPS or 50 μg/ml PAN was added at this point. 18-24 h post-infection, cells were detached using trypsin and processed either for subcellular fractionation or tested in the motility assays as described in (Reiser et al., J Biol Chem 279, 34827-34832 (2004)). When stated, 20 μM of Z-FF-FMK CatL specific inhibitor (Calbiochem, San Diego, Calif.) was added simultaneously with addition of LPS.

[2] = Table 1, donor GTPase-Alexa488, acceptor Hudy1-Alexa568, podocytes overexpressing the dynamin variant
[3] = Table 4, donor GTPase-a488, acceptor Hudy1-a568

Molecule	Mean Lifetime (γ1) [1, 2]	Mean Lifetime (γ1) ([1]; Table 4, donor GTPase-a488, acceptor GTPase-a568)	Mean Lifetime (γ1) [1, 3]	actin stress fibers, in words (podocytes)	loss of stress fibers under LPS or PAN, in words (podocytes; LPS and PAN treatment)
dynWT: wild type dynamin overexpressed by adenovirus or delivered as dynamin 1 cDNA	2212 ± 65	2423 ± 46	2254 ± 60	did not dramatically alter stress fiber pattern; also recorded: did not significantly alter the F-actin staining pattern	–
B1	–	–	2515 ± 43	loss of stress fibers; also recorded: abolished stress fibers	–
B2	–	–	2408 ± 40	did not dramatically change actin stress fibers	–
B3	–	–	–	did not significantly alter the F-actin staining pattern	–
B4	2408 ± 128	–	–	significantly induced stress fibers formation; also recorded: decreasing cortical actin and inducing stress fibers	prevented the loss of actin stress fibers; also recorded: inhibited the ability of LPS to reduce stress fibers
